Article PMC6107761, “Preferential Binding of Mg^2+ Over Ca^2+ to CIB2 Triggers an Allosteric Switch Impaired in Usher Syndrome Type 1J” (Frontiers in Molecular Neuroscience, 2018)

B1: human wild type calcium and integrin binding protein 2 (CIB2) (natural protein, UniProt O75838-1 1-187, looked up)
chain: MGNKQTIFTEEQLDNYQDCTFFNKKDILKLHSRFYELAPNLVPMDYRKSPIVHVPMSLIIQMPELRENPFKERIVAAFSEDGEGNLTFNDFVDMFSVLCESAPRELKANYAFKIYDFNTDNFICKEDLELTLARLTKSELDEEEVVLVCDKVIEEADLDGDGKLGFADFEDMIAKAPDFLSTFHIRI
notes: 21.6 kDa; complete cDNA; Non-covalent dimer by SEC, Ferguson plots and DLS under reducing conditions; Tag removed by TEV protease; also called WT CIB2; WT; source: E. coli BL21 DE3, purified (His-trap, TEV cleavage, second His-trap flow-through); not shown: 6xHis, N-terminal, cleaved
B2: human E64D CIB2 (natural protein, UniProt O75838-1 1-187, looked up)
chain: MGNKQTIFTEEQLDNYQDCTFFNKKDILKLHSRFYELAPNLVPMDYRKSPIVHVPMSLIIQMPDLRENPFKERIVAAFSEDGEGNLTFNDFVDMFSVLCESAPRELKANYAFKIYDFNTDNFICKEDLELTLARLTKSELDEEEVVLVCDKVIEEADLDGDGKLGFADFEDMIAKAPDFLSTFHIRI
notes: point mutation E64D made by site-directed mutagenesis on the complete cDNA; variant associated with Usher syndrome type 1J / non-syndromic hearing loss; After elution treated as the WT protein (TEV cleavage of the His tag); Dimer by SEC and Ferguson plots; also called p.E64D; USH1J-related variant; not shown: 6xHis, N-terminal, cleaved
B3: peptide of the membrane proximal segment of the cytoplasmic domain of α7B integrin, residues 1101-1116 (peptide)
peptide: Ac-LLLWKMGFFKRAKHPE-NH2
notes: Integrin α7B, membrane proximal segment of the cytoplasmic domain, residues 1101-1116 of Uniprot entry Q13683; source: synthetic peptide (GenScript)

Tests used:
[1] = molecular target: B3; experiment: other fluorescence titration; Trp emission spectra of 4 μM peptide alone and with fixed concentrations of WT CIB2 (8 μM for α7B_M; 2, 4 and 8 μM for Scrb); 20 mM Hepes, 150 mM KCl, 1 mM DTT pH 7.5, 37°C, 1 mM Mg2+ and 1 mM Ca2+; conditions: both partners purified
[2] = molecular target: B3; experiment: other fluorescence titration; 4 μM α7B_M peptide titrated with increasing CIB2; blue shift of the peptide's Trp emission peak (excitation 295 nm); 20 mM Hepes, 150 mM KCl, 1 mM DTT pH 7.5, 37°C, 1 mM Mg2+ and 1 mM Ca2+; apparent Kd; conditions: both partners purified
[3] = molecular target: the molecule itself; experiment: SEC; analytical SEC, Superose 12 10/300GL; 20 mM Tris pH 7.5, 150 mM KCl, 1 mM DTT with 3 mM EGTA or 2 mM EGTA + 3 mM Mg2+ or 3 mM Mg2+ + 2 mM Ca2+; WT 100 μM, E64D 70 μM; MW from a calibration plot
[4] = molecular target: B1; experiment: other fluorescence titration; 4 μM α7B_M peptide titrated with increasing CIB2; blue shift of the peptide's Trp emission peak (excitation 295 nm); 20 mM Hepes, 150 mM KCl, 1 mM DTT pH 7.5, 37°C, 1 mM Mg2+ and 1 mM Ca2+; apparent Kd; conditions: both partners purified
human E64D CIB2 = molecular target: B2; experiment: as above; conditions: both partners purified

Row | Binder | fold increase in the maximal fluorescence emission of the peptide [1] [fold] | stoichiometry N [2] [CIB2 chains per peptide] | stoichiometry N [3] | Kd [4] [µM] | Kd (human E64D CIB2) [µM]
1 | B1 | 1.7 | 2 |  |  | 
2 | B2 |  | 2 | 2 |  | 
3 | B3 |  |  |  | 4.99 | 3.1
